The target of data set [1] is T1, Nucleolin (MBP fusion, lacking N-terminal acidic stretches domain) (Homo sapiens, UniProt P19338 P19338:284-710). Briefly: filter; 60 mM KCl, 1 mM MgCl2. The conditions noted are these: label: 32P. As to the method: The assay also was conducted in a filter-binding format. In such forms of the assay, 0.2 nM of ³²P-labeled quadruplexes were incubated in 50 uL of the binding buffer (12.5 mM Tris-HCl, pH 7.6, 60 mM KCl, 1 mM MgCl2, 0.1 mM EDTA, 5% glycerol, 0.1 mg/mL BSA) for 10 min at 85 C and then for 10 min on ice and mixed with another 50 uL of binding buffer containing increasing amounts of recombinant protein Nucleolin. The protein-quadruplex mixtures were incubated for 30 min at ambient temperature and filtered through mixed cellulose ester membrane filters (Millipore) with gentle suction. The filters were washed twice with […] of binding buffer, dried and OptiPhase ‘SuperMix’ scintillation cocktail (Perkin Elmer) was added to the wells. Radioactivity was assayed with MicroBeta scintillation counter (Perkin Elmer). Binding curves were constructed and apparent Kd's and Bmax's for the complexes were calculated using the GraphPad Prizm software program (GraphPad Software). In the following table, the nucleic acid ligand is designated in the first column using the nomenclature described herein; the second column provides the nucleotide sequence of the nucleic acid ligand; the third column is the conformation of the ligand as determined by circular dichroism (M is mixed, P is parallel, A is antiparallel, C is complex, SS is single-stranded and ND is not determined); the fourth column is the dissociation constant determined by the filter binding assay of nucleolin protein and the nucleic acid ligand; the fifth column is a Bmax constant determined by the filter binding assay, which is the percent of active nucleic acid ligand in each assay; and the sixth column presents the concentration of Compound A-1 required to dissociate half of the complexed nucleic acid ligand and nucleolin protein, as determined by the EMSA assay described above.
T1 sequence (P19338 284-710, one chain of several): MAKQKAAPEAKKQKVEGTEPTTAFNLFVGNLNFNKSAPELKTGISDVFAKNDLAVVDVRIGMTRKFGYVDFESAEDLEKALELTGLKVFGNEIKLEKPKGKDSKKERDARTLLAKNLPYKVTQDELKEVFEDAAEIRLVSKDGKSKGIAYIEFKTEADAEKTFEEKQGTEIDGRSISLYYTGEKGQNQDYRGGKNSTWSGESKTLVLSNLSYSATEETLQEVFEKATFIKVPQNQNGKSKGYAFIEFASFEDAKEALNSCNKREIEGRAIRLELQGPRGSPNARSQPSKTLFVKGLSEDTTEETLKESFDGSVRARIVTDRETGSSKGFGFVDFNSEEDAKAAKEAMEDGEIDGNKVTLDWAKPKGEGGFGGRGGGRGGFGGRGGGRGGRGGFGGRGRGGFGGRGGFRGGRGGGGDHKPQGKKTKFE

In data set [2] the target is T1, Nucleolin (MBP fusion, lacking …). Briefly: filter; Bmax 16%; 60 mM KCl, 1 mM MgCl2. Particulars: label: 32P; G4 motif, CD not determined. Here is the method:
(§1) The assay also was conducted in a filter-binding format. In such forms of the assay, 0.2 nM of ³²P-labeled quadruplexes were incubated in 50 uL of the binding buffer (12.5 mM Tris-HCl, pH 7.6, 60 mM KCl, 1 mM MgCl2, 0.1 mM EDTA, 5% glycerol, 0.1 mg/mL BSA) for 10 min at 85 C and then for 10 min on ice and mixed with another 50 uL of binding buffer containing increasing amounts of recombinant protein Nucleolin. The protein-quadruplex mixtures were incubated for 30 min at ambient temperature and filtered through mixed cellulose ester membrane filters (Millipore) with gentle suction. The filters were washed twice with […] of binding buffer, dried and OptiPhase ‘SuperMix’ scintillation cocktail (Perkin Elmer) was added to the wells. Radioactivity was assayed with MicroBeta scintillation counter (Perkin Elmer). Binding curves were constructed and apparent Kd's and Bmax's for the complexes were calculated using the GraphPad Prizm software program (GraphPad Software). […]

Data set [3] shares this target. Briefly: filter; Bmax 33%; 60 mM KCl, 1 mM MgCl2. Particulars: label: 32P; G4 parallel. Here is the method: as §1
Data set [4] shares this target. Briefly: filter; Bmax 49%; 60 mM KCl, 1 mM MgCl2. Particulars: label: 32P; G4 motif, CD not determined. Here is the method: as §1
For data set [5] the target is unchanged. Briefly: filter; Bmax 20%; 60 mM KCl, 1 mM MgCl2. The conditions noted are these: label: 32P; G4 motif, CD not determined. Here is the method: as §1
Data set [6] shares this target. Briefly: filter; Bmax 50%; 60 mM KCl, 1 mM MgCl2. Particulars: label: 32P. Here is the method:
as §1

Data set [7] shares this target. Briefly: filter; Bmax 32%; 60 mM KCl, 1 mM MgCl2. The conditions noted are these: label: 32P. As to the method: as §1
Data set [8] has the same target. Kind of data set: filter; Bmax 52%; 60 mM KCl, 1 mM MgCl2. Particulars: label: 32P; G4 motif, CD not determined. As to the method:
as §1

Data set [9] has the same target. Briefly: filter; Bmax 26%; 60 mM KCl, 1 mM MgCl2. Particulars: label: 32P; G4 mixed. Here is the method: as §1
The target is the same in data set [10]. Kind of data set: filter; Bmax 55%; 60 mM KCl, 1 mM MgCl2. The conditions noted are these: label: 32P; G4 motif, CD not determined. Here is the method: as §1
Data set [11] has the same target. Kind of data set: filter; Bmax 53%; 60 mM KCl, 1 mM MgCl2. The conditions noted are these: label: 32P; G4 mixed. As to the method: as §1
For data set [12] the target is unchanged. Kind of data set: filter; Bmax 35%; 60 mM KCl, 1 mM MgCl2. Particulars: label: 32P; G4 motif, CD not determined. Here is the method: as §1
Data set [13] shares this target. Kind of data set: filter; Bmax 84%; 60 mM KCl, 1 mM MgCl2. The conditions noted are these: label: 32P; G4 mixed. Here is the method:
as §1

For data set [14] the target is unchanged. Briefly: filter; Bmax 82%; 60 mM KCl, 1 mM MgCl2. Particulars: label: 32P; G4 motif, CD not determined. As to the method:
as §1

The target is the same in data set [15]. Kind of data set: filter; apparent Kd; Bmax 41%; 12.5 mM Tris-HCl pH 7.6, 60 mM KCl, 1 mM MgCl2, ambient temperature. Particulars: label: 32P; G4 mixed. Here is the method:
as §1

Data set [16] has the same target. Kind of data set: filter; Bmax 21%; 60 mM KCl, 1 mM MgCl2. Particulars: label: 32P; G4 motif, CD not determined. Here is the method: as §1
The target is the same in data set [17]. Briefly: filter; Bmax 47%; 60 mM KCl, 1 mM MgCl2. Particulars: label: 32P. As to the method: as §1
Data set [18] has the same target. Briefly: filter; Bmax 43%; 60 mM KCl, 1 mM MgCl2. The conditions noted are these: label: 32P; G4 motif, CD not determined. Here is the method:
as §1

Data set [19] has the same target. Kind of data set: filter; Bmax 65%; 60 mM KCl, 1 mM MgCl2. The conditions noted are these: label: 32P; G4 motif, CD not determined. As to the method:
as §1

For data set [20] the target is unchanged. Kind of data set: filter; Bmax 31%; 60 mM KCl, 1 mM MgCl2. Particulars: label: 32P; G4 motif, CD not determined. As to the method:
as §1

For data set [21] the target is unchanged. Kind of data set: filter; Bmax 37%; 60 mM KCl, 1 mM MgCl2. Particulars: label: 32P; G4 parallel. As to the method: as §1
The target is the same in data set [22]. Briefly: filter; Bmax 66%; 60 mM KCl, 1 mM MgCl2. The conditions noted are these: label: 32P; G4 mixed. Here is the method:
as §1

Data set [23] shares this target. Briefly: filter; Bmax 100%; sequence taken from Example 6 table. Particulars: label: 32P; G4 complex. Here is the method: as §1

Turning to AGGGTTAGGGTTAGGGTTAGGG (structured_DNA) [hTel], the Kd in data set [1] (G4 antiparallel) is above 30 nM.
AGGGCGGGCGGCGGGGCGGG (structured_DNA) [7499T] showed a Kd in data set [2] of 1.1 nM.
In data set [3], TGGGGAGGGTGGGGAGGGTGGGGAATT (structured_DNA) [Myc27] had a Kd of 4.4 nM.
AGGGAGGACGCGGGGCCGGGGGGCGGAGACGGG (structured_DNA) [8716T] returned a Kd in [4] of 3.1 nM.
With AGGGCGGACGGGAGGGAGCGAGCGGGCGCGGGGG (structured_DNA) [3500T], the Kd in data set [5] stood at 1.1 nM.
Consider GGGCCCGCGGGGGGAGGGGGAAGGGGCGGG (structured_DNA) [6914T], for which, in data set [6] (G4 mixed), the Kd was found to be 0.8 nM.
In data set [7] (G4 mixed), GGGGCGCGGCGGGGGGAGAAGGGTCGGGGCGGCAGGGG (structured_DNA) [11028NT] had a Kd of 2.7 nM.
On to AGGGGCGGCGGGGAGGAGGAGGGGCGCGGGG (structured_DNA) [7370T], for which the Kd in data set [2] is 1.1 nM.
Regarding AGGGCGCGGGGTGGGGAGGG (structured_DNA) [10951T], the Kd in data set [8] turned out to be 0.2 nM.
In data set [9], GGGTCGGGGGCGGTGGTGGGCCCGCGGGGG (structured_DNA) [6183NT] showed a Kd of 2.2 nM.

B1: 2160T (structured_DNA)
DNA: AGGGCGGCGGGCGGGGAAGAGGGCACAGACGGGCGAGGGCCGGGGACCGCGAGGGCAAGGGCACCCGGG
On to B1, for which the Kd in data set [10] stood at 0.7 nM.
In [11], GGGAGGGGCACGGGCCGGGGGCGGGACGGG (structured_DNA) [7733T] registered a Kd of 0.8 nM.
AGGGACGCCTGGGGAAGGGAGGGGG (structured_DNA) [1310T] returned a Kd in data set [6] (G4 motif, CD not determined) of 4.4 nM.
Molecule AGGGGAGGGGGGAGGACGGGGAGCGGGGG (structured_DNA) [10985T] returned a Kd in data set [12] of 0.2 nM.
In [1] (G4 motif, CD not determined), AGGGACGGGGACCGGCGGGCCACGGGG (structured_DNA) [13236T] showed a Kd above 30 nM.
With AGGGGGGAACGGGGGGCGGACGGGGCCGGGGGGGTAGGGCGGGGGG (structured_DNA) [11345T], the Kd in data set [7] (G4 motif, CD not determined) came out at 0.3 nM.
As for GGAGGAGGAGGA (structured_DNA) [GGA4], the Kd in data set [1] (G4 parallel) is above 30 nM.
The molecule AGGGAGGGAGACGGGGGGG (structured_DNA) [5701NT] showed a Kd in data set [13] of 3.2 nM.

B2: 10885T (structured_DNA)
DNA: AGGGTGGGGCGGGGGAGGGCCGCGAGGGGGGTGCCCCGGGCGTGGGGGGGG
Consider B2, for which the Kd in data set [14] was determined as 0.2 nM.
Turning to GGGTGGACGGGGGGGCCTGGTGGGG (structured_DNA) [1196NT], the Kd in data set [15] worked out at 4.2 nM.
For the molecule AGGGACCGGTGGGGCCGGGGCGGGG (structured_DNA) [3468T], the Kd in data set [16] is 2.4 nM.
For the molecule GGGCCGGGACGGGGTCCGGGG (structured_DNA) [13173NT], in data set [1] (G4 mixed), the Kd is above 30 nM.
On to AGGGGACACCGGGGGGGCGCCGGGGG (structured_DNA) [11888T], for which the Kd in data set [17] (G4 motif, CD not determined) stood at 0.2 nM.
As to AGGGGCGGGGGCGCGGGGAGGAGGGGTGGG (structured_DNA) [9024T], in data set [18], the Kd came out at 0.3 nM.
In data set [19], AGGGGCTCCGGGGGCGGGGAGCGGGGCGTGGGCGGGAGGAGGGG (structured_DNA) [10137T] had a Kd of 0.4 nM.
Turning to AGGGGGTGGGCGCCGGGAGGGGGG (structured_DNA) [8904T], the Kd in [20] was 0.4 nM.
As for GGGGTGGGGGGGAGGG (structured_DNA) [13079NT], the Kd in data set [21] worked out at 2.6 nM.
Take GGGGGCGGGAACCCCCGGGCGCCTGTGGG (structured_DNA) [6374NT]: in [17] (G4 mixed), the Kd was 5.5 nM.
Molecule GGGTCGGGGGGTGGGGCCCGGGCCGGGG (structured_DNA) [2957NT] returned a Kd in [22] of 2.7 nM.

B3: 8762NT (structured_DNA)
DNA: CGGAGGGCGCGCGGGTCGGGGCGGCGGCGGCGGCGGCGGTGGCGGCGGCGGCGGGGGCGGCGGG
In data set [23], B3 returned a Kd of 0.3 nM.

B4: 8440T (structured_DNA)
DNA: AGGGGCGGCGGGGGAAGGGAGGGCGGGTGGAGGGGTCGGGAGGAACGGGGGGCGGG
In data set [12], B4 had a Kd of 0.3 nM.

Source of the values: patent publication US20070117770, “Human ribosomal DNA (rDNA) and ribosomal RNA (rRNA) nucleic acids and uses thereof” (Cylene Pharmaceuticals, Inc., published 2007).
